{"source": "paper PMC9960064", "assay_in_all_cases": "ITC", "key": {"[1]": {"target": "untagged β′-COP residues 1–604 (yeast (S. cerevisiae)) (UniProt P41811)", "sequence (P41811 1-604)": "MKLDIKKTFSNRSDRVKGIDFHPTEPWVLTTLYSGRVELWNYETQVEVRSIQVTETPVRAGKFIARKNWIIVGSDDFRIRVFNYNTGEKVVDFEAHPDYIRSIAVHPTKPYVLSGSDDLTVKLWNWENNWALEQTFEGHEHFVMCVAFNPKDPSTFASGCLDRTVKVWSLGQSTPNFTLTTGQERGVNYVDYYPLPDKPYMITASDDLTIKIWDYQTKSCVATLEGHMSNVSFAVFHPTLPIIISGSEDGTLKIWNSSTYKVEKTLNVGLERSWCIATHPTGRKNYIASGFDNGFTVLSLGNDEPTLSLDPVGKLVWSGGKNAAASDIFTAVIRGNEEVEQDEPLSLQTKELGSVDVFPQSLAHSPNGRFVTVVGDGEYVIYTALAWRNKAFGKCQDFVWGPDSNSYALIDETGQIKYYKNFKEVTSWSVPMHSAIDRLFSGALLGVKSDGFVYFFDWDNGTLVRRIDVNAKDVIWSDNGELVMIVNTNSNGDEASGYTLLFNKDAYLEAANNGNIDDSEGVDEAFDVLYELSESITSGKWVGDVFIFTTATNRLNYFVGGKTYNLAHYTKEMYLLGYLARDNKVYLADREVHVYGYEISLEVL"}, "[2]": {"target": "C-terminal β′-COP propeller (residues 300–604), untagged (yeast (S. cerevisiae)) (UniProt P41811)", "sequence (P41811 300-604)": "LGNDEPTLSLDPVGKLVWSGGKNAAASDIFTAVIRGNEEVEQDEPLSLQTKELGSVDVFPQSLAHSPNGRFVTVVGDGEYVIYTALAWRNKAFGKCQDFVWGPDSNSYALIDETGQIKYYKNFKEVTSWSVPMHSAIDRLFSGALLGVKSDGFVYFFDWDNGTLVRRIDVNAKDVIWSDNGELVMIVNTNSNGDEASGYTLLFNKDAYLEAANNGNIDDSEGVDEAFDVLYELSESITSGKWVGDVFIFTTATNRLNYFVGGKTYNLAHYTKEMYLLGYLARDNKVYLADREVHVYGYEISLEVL"}, "[3]": {"target": "β′-COP R13A/K15A/R59A (RKR mutant), residues 1–604, untagged (yeast (S. cerevisiae)) (UniProt P41811)"}}}
{"substance": "Glo3 fragment lacking N-terminal residues 230–240, untagged (domain or fragment)", "values": [{"measurement": "Kd", "setting": "[1]", "value": "> 300", "unit": "µM"}]}
{"substance": "full BoCCS Glo3 fragment (residues 208–383), untagged (from UniProt P38682 208-383) (domain or fragment)", "values": [{"measurement": "stoichiometry N", "setting": "[1]", "value": 1}]}
{"substance": "untagged Glo3 BoCCS fragment (residues 230–300) (from UniProt P38682 230-300) (domain or fragment)", "values": [{"measurement": "Kd", "setting": "[2]", "value": "< 300", "unit": "µM"}]}
{"substance": "untagged Glo3 residues 230–290 (from UniProt P38682 230-290) (domain or fragment)", "values": [{"measurement": "fold weaker binding than wild-type β′-COP", "setting": "[3]", "value": 16, "unit": "fold"}]}
